Laboratory results: a protein production outcome set (Wang et al. 2014)

Assay: label from the status in PepcDB records

Sequence	protein production
MGPLLVWHRGDLRLHDHPALLEALARGPVVGLVVLDPNNLKTTPRRRAWFLENVRALREAYRARGGALWVLEGLPWEKVPEAARRLKAKAVYALTSHTPYGRYRDGRVREALPVPLHLLPAPHLLPPDLPRAYRVYTPFSRLYRGAAPPLPPPEALPKGPEEGEIPREDPGLPLPEPGEEAALAGLRAFLEAKLPRYAEERDRLDGEGGSRLSPYFALGVLSPRLAAWEAERRGGEGARKWVAELLWRDFSYHLLYHFPWMAERPLDPRFQAFPWQEDEALFQAWYEGKTGVPLVDAAMRELHATGFLSNRARMNAAQFAVKHLLLPWKRCEEAFRHLLLDGDRAVNLQGWQWAGGLGVDAAPYFRVFNPVLQGERHDPEGRWLKRWAPEYPSYAPKDPVVDLEEARRRYLRLARDLARG	not failed
MGPVPEFSVIIPARNEAAYLPGTLRALERQTLAPAEVIVVDNASRDQTAQIARSWGAQVLSCPEGGVARARQLGLDTARSSWVATTDADSLPAPGWLAAYAQAALLAGGYPEVEAYEDVILGQNLARLGEIGYVPRALVETSARRLDRGVGPFLIQHLRNLTGHTRGLEHHHHHH	failed
MGQNQFRWSNEQLREHVEVIDGTRSPHIVLRNATYLNSYIREWMQANIWIYDDRIIYVGEKLPEQLHECEVIDCDGKYVVPSYIEPHAHPYQLYNPETLANHAMQFGTTTFINDNLTLFFTLKRELEHHHHHH	failed
MGQPQQPEGAGAEEAAAGTDSGTDTGTGAGAGAATGASATRPPLRVGMVGYAFMGAAHSQGWRTAGRVFDLPLNPVLAAICGRDADAVRLAADRHGWASTETDWRTLVERDDIDLVDICTPGDSHSEIALAALAAGKHVLCEKPLANTVEEAQAMTRAAEEAAARGQLAMVGFNYRRVPATALARRMVAEGRVGRLRHLRVTYLQDWLVDPKAPLTWRLRKELAGSGALGDLGAHIVDLAQYLSGERIAGVSALTETFVRERPLPAGAPRGLSAGSADGVTGQVTVDDAAVFTGRLTSGALVSFEATRYATGRKNALRIELNGERGSLAFDLERLNELSYHDGTEPGEHAGFRRILVTEPEHPYLEAWWPPGHGLGYEHTFVHQARDLVHAVAEGRGPEPSFADGLQVQRVLAAVEESAEKNSVYTPITP	failed
MGQTALARGSSSTPTSQALYSDFSPPEGLEELLSAPPPDLVAQRHHGWNPKDCSENIDVKEGGLCFERRPVAQSTDGVRGKRGYSRGLHAWEISWPLEQRGTHAVVGVATALAPLQADHYAALLGSNSESWGWDIGRGKLYHQSKGLEAPQYPAGPQGEQLVVPERLLVVLDMEEGTLGYSIGGTYLGPAFRGLKGRTLYPSVSAVWGQCQVRIRYMGERRVEEPQSLLHLSRLCVRHALGDTRLGQISTLPLPPAMKRYLLYK	failed
MGRIAWVVRADRPCAATNTHINEPPRRALTSGPGVFIRRTVAAAATRRRYPSAMAIHADTHDDLRLFQTGEHACGYWSDRRARDLVLDPHDPRLGAIYPQALAWGFRRSGDLVYRPHCERCRACVPVRIAVDAFHPDRSQRRCLTRNQDLVVRVVAAERTDEQLALYRQYLKYRHPGGGMDEHGATEFDQFLIGGWSHGRFLEIREPAIAHLPGRLLAVAVTDVTEHALSAIYTFYAPEAAARSLGTFAILQQIQWAQRERRAHVYLGYWIEGHAKMNYKRRFSALEAYDGRHWCDLPAHPSGT	failed
MGRRFDHLGDVEAFIIVAEKGSMTEAAVALATTASVLSRAITRLETRLGAQLMRRTTRRLNLTDEGRAYLEQARAAFSMIDDAERAIQGPTGASLTGHVRISVPTTYGHHRLPAMLERFMQAYPEVQIELSITNRNVDLVAEGYDLAIRLGPLPDSGLVARKLEDASLRLVAAPHYLERAGMPQDVEDLAEHQCLPFVMPSTGRCAPWLFHVDGRDLDWTPPGRIQVFDDVLGVVSLAESGLGICQIYDFIIRDRVKEGRLVEVLDHAQGRFRPFSLIFAPHRRLSAATRTLIDFLVEK	failed
MGRYILGITVLVTVVVAPLEAGLSSVALLALLAAFGIGVQVIAPWFIPLVRSVDTPDDQTTETLNRLRERAGLTVRDVRVLDTEQEGTANVIVRGAPGYRRLFVTSTFLDVFDDEMATALLAVQAGRQEARVRARLIGGLLIALVPVFAALADIGPLWPLVGASLGLLVVTLWVTRRGVRAADDYAAEGVGPDTVADALERYADVHDMEPPRRRLANPFSKSPPLGNRIDRLREQAGE	failed
MGSEVVNPTKPRFDLSMSKRTRKPWSSLINDMHHHAICTQSSQPKPDKEQEQIEDKEIDRKSLNNLMRCDEKLNGEADVNNKSSLDQHFEDGEGIKPTMQLVVKKEKQGGLKFKGLSQHIFRLIEFLLSYRTDY	failed
MGSGHILGTSRLPKETWMANAECFVLMLPLRECAGRCHVCLKTAYTMRHRLIECLSAYSPSFKTGRGCGCELDETYFPESFKGNHTKGSFTMPRHSRHRGKQVHRRGLSREQICVMTGVNDSNETFLQVSGRGILSRKRAMDVLRDRIASASVVATDKASAYVDVLAELEVDAHTAYDSKDPSEGTINRINTVHSLLDTFMKPFKGVSTKHLGTYLAWFKWCRTFMATDSGTAERTVARQLANGVCRSRIHDMFNVLPP	failed
MGSGKERDTFVYLAKLSEQAERYEEMVESMKSVAKLNVDLTVEERNLLSVGYKNVIGSRRASWRIFSSIEQKEAVKGNDVNVKRIKEYMEKVELELSNICIDIMSVLDEHLIPSASEGESTVFFNKMKGDYYRYLAEFKSGNERKEAADQSLKAYEIATTAAEAKLPPTHPIRLGLALNFSVFYYEIMNAPERACHLAKQAFDEAISELDTLNEESYKDSTLIMQLLRDNLTLWTSDISEEGGDDAHKTNGSAKPGAGGDDAE	failed
MGSGSMLQSWNLKTSKRTGSFDAKSSINAVAISPDGNTLATGIRDNAIKLWNINDGKLIHTLTGHQGQVRTVAFSPDGTLLASGSSDGTVKLWNATTGKEINTFTAHKEQVWSVAFNPDGKTLASTGQDGSVKIWGVSPQLEHHHHHH	not failed
MGSLERSKKKAQVWKKAVIHFSLCFVMGFFTGFAPAGKASFFSNFETTSYTSTKSPIPPQPFENATYTQHSLLNRTLINSQSQAPAPAESREAEGETRSLSEKEDENQVKVTPRGLVIVVTPIITKDRYKNVLLRRMANTLRLVPPPLLWIVVEKHSDGEEKSSSTMLRKTGIMYRRIVFKEDFTSLESELDHQRNLALRHIEHHKLSGIVHFAGLNNIYDLDFFVKIRDIEVFGTWPMALLSANRKRVVVEGPVCESSQVLGWHLRKINNETETKPPIHISSFAFNSSILWDPERWGRPSSVEGTKQDSIKYVKQVVLEDDTKLKGLPAQDCSKIMLWRLKFPTRTRLST	failed
MGSLYTSELSRAVSESVAAALQRSFQGELRSASALGSGWSTSAELLNRNDSTERYFVKLSEPQAVSMFSAEFEGIQAMAESETVRVPAPICYGNTAERSFIVLEYLELGGIGNEAVYRDFGEKLAAMHRCSSGGRGYGWHRGNTIGSTPQLNTWMHSWADFFVENRLRYQLKLARSRQGGRLRNEDALLQRVHSVLQEHEIQHQVTPSLVHGDLWTGNVATLRNQNEVVIFDPATYYGDREVDLAMTELFGRLPRAFYQAYDASWPLPKGYREKRRVIYNLYHILNHGALFGGGYYDQAQSMIETILR	not failed
MGSMDQSIAVKSPLTYAEALANTIMNTYTVEELPPANRWHYHQGVFLCGVLRLWEATGEKRYFEYAKAYADLLIDDNGNLLFRRDELDAIQAGLILFPLYEQTKDERYVKAAKRLRSLYGTLNRTSEGGFWHKDGYPYQMWLDGLYMGGPFALKYANLKQETELFDQVVLQESLMRKHTKDAKTGLFYHAWDEAKKMPWANEETGCSPEFWARSIGWYVMSLADMIEELPKKHPNRHVWKNTLQDMIKSICRYQDKETGLWYQIVDKGDRSDNWLESSGSCLYMYAIAKGINKGYLDRAYETTLLKAYQGLIQHKTETSEDGAFLVKDICVGTSAGFYDYYVSRERSTNDLHGAGAFILAMTELEPLFRSAGK	not failed
MGSSHHHHHHSSGENLYFQGHMIYPYKGKTPQIAASAFIADYVTITGDVVIGEETSIWFNTVIRGDVAPTVIGNRVNIQDNSILHQSPNNPLIIEDGVTVGHQVILHSAIVRKNALIGMGSIILDRAEIGEGAFIGAGSLVPPGKKIPPNTLALGRPAKVVRELTEDDIREMERIRREYVEKGQYYKALQQQRTSCADKKELP	not failed
MGSSHHHHHHSSGLVPRGSHRSEFSSRSGYGEYVQQTLQPGMRVRMLDDYEEISAGDEGEFRQSNNGIPPVQVFWQSTGRTYWVHWHMLEILGPEEATEDKASAAVEKGAGATVLGTAFPS	not failed
MGSSHHHHHHSSGRENLYFQGMAATAREDGASGQERGQRGCEHYDRGCLLKAPCCDKLYTCRLCHDNNEDHQLDRFKVKEVQCINCEKIQHAQQTCEECSTLFGEYYCDICHLFDKDKKQYHCENCGICRIGPKEDFFHCLKCNLCLAMNLQGRHKCIENVSRQNCPICLEDIHTSRVVAHVLPCGHLLHRTCYEEMLKEGYRCPLCMHSALDMTRYWRQLDDEVAQTPMPSEYQNMTVDILCNDCNGRSTVQFHILGMKCKICESYNTAQAGGRRISLDQQ	failed
MGSSHHHHHHSSGRENLYFQGMRLKSEMFVSALIRRVFAAGGFAAVEKKGAEAAGAIFVRQRLRDGRENLYGPAPQSFADDEDIMRAERRFETRLAGVEGEEIAALLERERRFDSDLWVVEIETDEIGTLLTLVDQPQA	not failed
MGSSLPFDLILEILQRTPAESLLRFKSTCKKWYELISNDKRFMYKHLDKSTKRFLRIENRERVQILDPVTEILAVSTIPNELRHKYFTLIHCDGLMLGMCYEELGSDPNLAVWNPVMRKIKWIKPSPPLVCYWGSDYLGFGYDKTFRDNYKILRFTYLGDDDDDESYPKCQIYEFNSGSWRSIEAKFDGEIDVEVDGVSVNGSMYWIELQEKKNFILSFDFSKETFNRICDSPLYWDIKRLGCFNGDRLSLLQQNEATREIHVSVTNKLSDEVVSFSRYFSVTLPDIPLFRSIDILPLPGCFIGKNRNIIAWCEQLVGKYDDHTSIILYEIGEGGVTKRIRTGRHEADEDYNDLDNCSYVYVPSLIPVPE	failed
MGTDTAQARPTDEAAERRREQRGWYFYDWACSVYSTSVLTVFLGPYLTSVAKSAADADGYVHPLGVPVRAGSFFAYSVSLSVIVAVVVMPLVGAAADRTGRKKPLLAVTAYVGAAATAGMFFLDGDRYLLGGVLLLVANAAQAVSMMLYNSYLPQIAPPEERDAVSSRGWAFGYAAGALVLIANLVLFLAHDSFGVSESTAVRICLASAGLWWGAFTLIPLKRLRDRGSPVKEITAPGPRRLAATVRDMRRHPLTLSFLLAYLIYNDGIQTVISQASVYGSEELGLSQSTLIVAVLLVQVLAVGGALGMGRLARTYGARRTILGSLVAWTVTLGAGYFLPAGAPFWFFVLASGIGLVLGGSQALSRSLFSHLVPAGKEAEYFSAYEMSDRGMSWLGPLLFGLTYQLTGSYRDAIISLVAFFVVGFVLLARVPVRQAVRDAGNSVPERI	failed
MGTEATEQVSWGHYSGDEEDAYSAEPLPELCYKADVQAFSRAFQPSVSLTVAALGLAGNGLVLATHLAARRAARSPTSAHLLQLALADLLLALTLPFAAAGALQGWSLGSATCRTISGLYSASFHAGFLFLACISADRYVAIARALPAGPRPSTPGRAHLVSVIVWLLSLLLALPALLFSQDGQREGQRRCRLIFPEGLTQTVKGASAVAQVALGFALPLGVMVACYALLGRTLLAARGPERRRALRVVVALVAAFVVLQLPYSLALLLDTADLLAARERSCPASKRKDVALLVTSGLALARCGLNPVLYAFLGLRFRQDLRRLLRGGSCPSGPQPRRGCPRRPRLSSCSAPTETHSLSWDN	failed
MGTETVVHDQARWAMAAMERRLAVAKAQLLQQQQQKNEKDKKGTSDVDVSMKESHQADSLPTPSKTSIKKVDPKDDDSVAYTKLSHPVDENLLATNVKFSSAKGTIVDKVLHNLLRSGDSAQKYLQGTKSVKLDNYILLDNFVQSRSSASGSKKASQKDSKRSKSRMSMKRLKKSGALHIPKDLQKFDLFKPMHGMWESYMMKLIKVTGKIQLSLTLLSADLHGAFMFGNPSFFHKSVVLGYDLLSLTHFPKLNFSQPILLVTVAECKIASFTGVQGIMVRETSETFGIITRDDKFRGILKLFSPIYLP	failed
